T1: human-xCT ECD3 peptide (human)
T1 construct: Coated at 1 µg/mL
T1 peptide: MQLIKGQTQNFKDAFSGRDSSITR


Biological target: T1, human-xCT ECD3 peptide
Assay: ELISA of subclone supernatant against xCT

Row | Binder | ELISA O.D. 450
1 | 11D1/H10 subclone A1 (antibody) heavy: QVQLQQSGAELVRPGASVKLSCKALGYTFTDYEMHWVKQTPVHGLEWIGAIHPGSGGTAYNQKFKGKATLTADKSSSTAYMELSSLTSEDSAVYYCTRPLYYRYPYYFDYWGQGTTLTVSSESQSFPNVFPLVSCESPLSDKNLVAMGCLARDFLPSTISFTWNYQNNTEVIQGIRTFPTLRTGGKYLATSQVLLSPKSILEGSDEYLVCKIHYGGKNRDLHVPIPAVAEMNPNVNVFVPPRDGFSGPAPRKSKLICEATNFTPKPITVSWLKDGKLVESGFTTDPVTIENKGSTPQTYKVISTLTISEIDWLNLNVYTCRVDHRGLTFLKNVSSTCAASPSTDILTFTIPPSFADIFLSKSANLTCLVSNLATYETLNISWASQSGEPLETKIKIMESHPNGTFSAKGVASVCVEDWNNRKEFVCTVTHRDLPSPQKKFISKPNEVHKHPPAVYLLPPAREQLNLRESATVTCLVKGFSPADISVQWLQRGQLLPQEKYVTSAPMPEPGAPGFYFTHSILTVTEEEWNSGETYTCVVGHEALPHLVTERTVDKSTGKPTLYNVSLIMSDTGGTCY light: QIVLTQSPAIMSASPGEKVTISCSASSSVSYMYWYQQKPGSSPKPWIYRTSNLASGVPARFSGSGSGTSYSLTISSMEAEDAATYYCQQYHSYPLTFGAGTKLELKRADAAPTVSIFPPSSEQLTSGGASVVCFLNNFYPKDINVKWKIDGSERQNGVLNSWTDQDSKDSTYSMSSTLTLTKDEYERHNSYTCEATHKTSTSPIVKSFNRNEC | ≥ 0.4
2 | 11D1/H10 subclone A5 (antibody, IgM kappa) heavy: QVQLQQSGAELVRPGASVKLSCKALGYTFTDYEMHWVKQTPVHGLEWIGAIHPGSGGTAYNQKFKGKATLTADKSSSTAYMELSSLTSEDSAVYYCTRPLYYRYPYYFDYWGQGTTLTVSSESQSFPNVFPLVSCESPLSDKNLVAMGCLARDFLPSTISFTWNYQNNTEVIQGIRTFPTLRTGGKYLATSQVLLSPKSILEGSDEYLVCKIHYGGKNRDLHVPIPAVAEMNPNVNVFVPPRDGFSGPAPRKSKLICEATNFTPKPITVSWLKDGKLVESGFTTDPVTIENKGSTPQTYKVISTLTISEIDWLNLNVYTCRVDHRGLTFLKNVSSTCAASPSTDILTFTIPPSFADIFLSKSANLTCLVSNLATYETLNISWASQSGEPLETKIKIMESHPNGTFSAKGVASVCVEDWNNRKEFVCTVTHRDLPSPQKKFISKPNEVHKHPPAVYLLPPAREQLNLRESATVTCLVKGFSPADISVQWLQRGQLLPQEKYVTSAPMPEPGAPGFYFTHSILTVTEEEWNSGETYTCVVGHEALPHLVTERTVDKSTGKPTLYNVSLIMSDTGGTCY light: QIVLTQSPAIMSASPGEKVTISCSASSSVSYMYWYQQKPGSSPKPWIYRTSNLASGVPARFSGSGSGTSYSLTISSMEAEDAATYYCQQYHSYPLTFGAGTKLELKRADAAPTVSIFPPSSEQLTSGGASVVCFLNNFYPKDINVKWKIDGSERQNGVLNSWTDQDSKDSTYSMSSTLTLTKDEYERHNSYTCEATHKTSTSPIVKSFNRNEC | ≥ 0.4
3 | 11D1/H10 subclone B9 (antibody, IgM kappa) heavy: QVQLQQSGAELVRPGASVKLSCKALGYTFTDYEMHWVKQTPVHGLEWIGAIHPGSGGTAYNQKFKGKATLTADKSSSTAYMELSSLTSEDSAVYYCTRPLYYRYPYYFDYWGQGTTLTVSSESQSFPNVFPLVSCESPLSDKNLVAMGCLARDFLPSTISFTWNYQNNTEVIQGIRTFPTLRTGGKYLATSQVLLSPKSILEGSDEYLVCKIHYGGKNRDLHVPIPAVAEMNPNVNVFVPPRDGFSGPAPRKSKLICEATNFTPKPITVSWLKDGKLVESGFTTDPVTIENKGSTPQTYKVISTLTISEIDWLNLNVYTCRVDHRGLTFLKNVSSTCAASPSTDILTFTIPPSFADIFLSKSANLTCLVSNLATYETLNISWASQSGEPLETKIKIMESHPNGTFSAKGVASVCVEDWNNRKEFVCTVTHRDLPSPQKKFISKPNEVHKHPPAVYLLPPAREQLNLRESATVTCLVKGFSPADISVQWLQRGQLLPQEKYVTSAPMPEPGAPGFYFTHSILTVTEEEWNSGETYTCVVGHEALPHLVTERTVDKSTGKPTLYNVSLIMSDTGGTCY light: QIVLTQSPAIMSASPGEKVTISCSASSSVSYMYWYQQKPGSSPKPWIYRTSNLASGVPARFSGSGSGTSYSLTISSMEAEDAATYYCQQYHSYPLTFGAGTKLELKRADAAPTVSIFPPSSEQLTSGGASVVCFLNNFYPKDINVKWKIDGSERQNGVLNSWTDQDSKDSTYSMSSTLTLTKDEYERHNSYTCEATHKTSTSPIVKSFNRNEC | ≥ 0.4
4 | 11D1/H10 subclone D5 (antibody, IgM kappa) heavy: QVQLQQSGAELVRPGASVKLSCKALGYTFTDYEMHWVKQTPVHGLEWIGAIHPGSGGTAYNQKFKGKATLTADKSSSTAYMELSSLTSEDSAVYYCTRPLYYRYPYYFDYWGQGTTLTVSSESQSFPNVFPLVSCESPLSDKNLVAMGCLARDFLPSTISFTWNYQNNTEVIQGIRTFPTLRTGGKYLATSQVLLSPKSILEGSDEYLVCKIHYGGKNRDLHVPIPAVAEMNPNVNVFVPPRDGFSGPAPRKSKLICEATNFTPKPITVSWLKDGKLVESGFTTDPVTIENKGSTPQTYKVISTLTISEIDWLNLNVYTCRVDHRGLTFLKNVSSTCAASPSTDILTFTIPPSFADIFLSKSANLTCLVSNLATYETLNISWASQSGEPLETKIKIMESHPNGTFSAKGVASVCVEDWNNRKEFVCTVTHRDLPSPQKKFISKPNEVHKHPPAVYLLPPAREQLNLRESATVTCLVKGFSPADISVQWLQRGQLLPQEKYVTSAPMPEPGAPGFYFTHSILTVTEEEWNSGETYTCVVGHEALPHLVTERTVDKSTGKPTLYNVSLIMSDTGGTCY light: QIVLTQSPAIMSASPGEKVTISCSASSSVSYMYWYQQKPGSSPKPWIYRTSNLASGVPARFSGSGSGTSYSLTISSMEAEDAATYYCQQYHSYPLTFGAGTKLELKRADAAPTVSIFPPSSEQLTSGGASVVCFLNNFYPKDINVKWKIDGSERQNGVLNSWTDQDSKDSTYSMSSTLTLTKDEYERHNSYTCEATHKTSTSPIVKSFNRNEC | ≥ 0.4
5 | 11D1/H10 subclone E1 (antibody, IgM kappa) heavy: QVQLQQSGAELVRPGASVKLSCKALGYTFTDYEMHWVKQTPVHGLEWIGAIHPGSGGTAYNQKFKGKATLTADKSSSTAYMELSSLTSEDSAVYYCTRPLYYRYPYYFDYWGQGTTLTVSSESQSFPNVFPLVSCESPLSDKNLVAMGCLARDFLPSTISFTWNYQNNTEVIQGIRTFPTLRTGGKYLATSQVLLSPKSILEGSDEYLVCKIHYGGKNRDLHVPIPAVAEMNPNVNVFVPPRDGFSGPAPRKSKLICEATNFTPKPITVSWLKDGKLVESGFTTDPVTIENKGSTPQTYKVISTLTISEIDWLNLNVYTCRVDHRGLTFLKNVSSTCAASPSTDILTFTIPPSFADIFLSKSANLTCLVSNLATYETLNISWASQSGEPLETKIKIMESHPNGTFSAKGVASVCVEDWNNRKEFVCTVTHRDLPSPQKKFISKPNEVHKHPPAVYLLPPAREQLNLRESATVTCLVKGFSPADISVQWLQRGQLLPQEKYVTSAPMPEPGAPGFYFTHSILTVTEEEWNSGETYTCVVGHEALPHLVTERTVDKSTGKPTLYNVSLIMSDTGGTCY light: QIVLTQSPAIMSASPGEKVTISCSASSSVSYMYWYQQKPGSSPKPWIYRTSNLASGVPARFSGSGSGTSYSLTISSMEAEDAATYYCQQYHSYPLTFGAGTKLELKRADAAPTVSIFPPSSEQLTSGGASVVCFLNNFYPKDINVKWKIDGSERQNGVLNSWTDQDSKDSTYSMSSTLTLTKDEYERHNSYTCEATHKTSTSPIVKSFNRNEC | ≥ 0.4
